Reference: the supplement of paper PMC6757056
± gives the standard deviation of the averaged measurements.

B1: library; a variant is named by its letters at N, in order (parent)
chain: GCUGUCACCGGUGUAUUACCCUAGUGGUCGACCGGUCUGAUGAGUCUNNNNNNAGACGAAACAGC

Assays:
hypoxanthine [1] = variants of: B1; assay: normalized RNA/DNA level with ligand (relative to sTRSVctl = 100) (log10 (% of sTRSVctl)); ligand: hypoxanthine (xanthine aptamer); higher = less ribozyme self-cleavage, higher mRNA level; conditions: ligand concentration (+) RNA-Seq: 5 mM, HEK293T, reporter: mCherry (pCS4076), ligand present: yes
Summary of the method: (§1)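 Total RNA, extracted with EDTA 72 h after HEK293T cells were transfected with 4 µg per 6-well well of reporter-linked ribozyme switch library plasmids, was reverse-transcribed, amplified, barcoded and sequenced. Ligand, if used, was added 1 h before transfection. RNA level was derived from RNA reads divided by DNA reads and normalized to a spiked-in non-cleaving sequence or to the top sequences. This was multiplied by 100 and log10-transformed, with the top set of 25 sequences and a ≥100 DNA read minimum.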

hypoxanthine [2] = variants of: B1; assay: normalized RNA/DNA level without ligand (relative to sTRSVctl = 100) (log10 (% of sTRSVctl)); ligand: hypoxanthine (xanthine aptamer); higher = less ribozyme self-cleavage, higher mRNA level; conditions: HEK293T, reporter: mCherry (pCS4076), ligand present: no
Summary of the method: as §1

Variant	normalized RNA/DNA level with ligand (log10) (hypoxanthine [1])	normalized RNA/DNA level without ligand (log10) (hypoxanthine [2])
GCUGUCACCGGUGUAUUACCCUAGUGGUCGACCGGUCUGAUGAGUCUUGGACCAGACGAAACAGC [UGGACC]	1.98 ± 0.049	1.95 ± 0.017
GCUGUCACCGGUGUAUUACCCUAGUGGUCGACCGGUCUGAUGAGUCUAAUGGUAGACGAAACAGC [AAUGGU]	1.925 ± 0.016	1.592 ± 0.0071
GCUGUCACCGGUGUAUUACCCUAGUGGUCGACCGGUCUGAUGAGUCUAAUCCCAGACGAAACAGC [AAUCCC]	1.94 ± 0.024	1.84 ± 0.035
GCUGUCACCGGUGUAUUACCCUAGUGGUCGACCGGUCUGAUGAGUCUUUCAUGAGACGAAACAGC [UUCAUG]	1.95 ± 0.029	1.78 ± 0.056
GCUGUCACCGGUGUAUUACCCUAGUGGUCGACCGGUCUGAUGAGUCUAUACUUAGACGAAACAGC [AUACUU]	1.92 ± 0.022	1.859 ± 0.0037
GCUGUCACCGGUGUAUUACCCUAGUGGUCGACCGGUCUGAUGAGUCUUGCACGAGACGAAACAGC [UGCACG]	1.923 ± 0.014	1.76 ± 0.038
GCUGUCACCGGUGUAUUACCCUAGUGGUCGACCGGUCUGAUGAGUCUCGAUCGAGACGAAACAGC [CGAUCG]	1.94 ± 0.027	1.84 ± 0.038
GCUGUCACCGGUGUAUUACCCUAGUGGUCGACCGGUCUGAUGAGUCUCGCGACAGACGAAACAGC [CGCGAC]	1.97 ± 0.067	1.75 ± 0.059
GCUGUCACCGGUGUAUUACCCUAGUGGUCGACCGGUCUGAUGAGUCUCGCGAGAGACGAAACAGC [CGCGAG]	1.84 ± 0.06	1.67 ± 0.011
GCUGUCACCGGUGUAUUACCCUAGUGGUCGACCGGUCUGAUGAGUCUAGUGCAAGACGAAACAGC [AGUGCA]	1.92 ± 0.051	1.78 ± 0.03
GCUGUCACCGGUGUAUUACCCUAGUGGUCGACCGGUCUGAUGAGUCUACCCACAGACGAAACAGC [ACCCAC]	1.921 ± 0.0048	1.792 ± 0.0063
GCUGUCACCGGUGUAUUACCCUAGUGGUCGACCGGUCUGAUGAGUCUCAUAGCAGACGAAACAGC [CAUAGC]	1.923 ± 0.0099	1.86 ± 0.014
GCUGUCACCGGUGUAUUACCCUAGUGGUCGACCGGUCUGAUGAGUCUAUGCGUAGACGAAACAGC [AUGCGU]	1.94 ± 0.025	1.819 ± 0.016
GCUGUCACCGGUGUAUUACCCUAGUGGUCGACCGGUCUGAUGAGUCUACCUCCAGACGAAACAGC [ACCUCC]	1.99 ± 0.03	1.919 ± 0.018
GCUGUCACCGGUGUAUUACCCUAGUGGUCGACCGGUCUGAUGAGUCUGACUUCAGACGAAACAGC [GACUUC]	1.9476 ± 0.0019	1.98 ± 0.098
GCUGUCACCGGUGUAUUACCCUAGUGGUCGACCGGUCUGAUGAGUCUCUGGGUAGACGAAACAGC [CUGGGU]	2 ± 0.069	1.881 ± 0.005
GCUGUCACCGGUGUAUUACCCUAGUGGUCGACCGGUCUGAUGAGUCUUUUGUCAGACGAAACAGC [UUUGUC]	2.0103 ± 0.0014	1.99 ± 0.036
GCUGUCACCGGUGUAUUACCCUAGUGGUCGACCGGUCUGAUGAGUCUUGACAUAGACGAAACAGC [UGACAU]	1.937 ± 0.0061	1.81 ± 0.033
GCUGUCACCGGUGUAUUACCCUAGUGGUCGACCGGUCUGAUGAGUCUGGCGUCAGACGAAACAGC [GGCGUC]	1.94 ± 0.073	1.901 ± 0.014
GCUGUCACCGGUGUAUUACCCUAGUGGUCGACCGGUCUGAUGAGUCUACGUUUAGACGAAACAGC [ACGUUU]	1.84 ± 0.022	1.53 ± 0.035
GCUGUCACCGGUGUAUUACCCUAGUGGUCGACCGGUCUGAUGAGUCUUCGUUAAGACGAAACAGC [UCGUUA]	1.961 ± 0.0027	1.736 ± 0.0095

Variant	normalized RNA/DNA level with ligand (log10) (hypoxanthine [1])	normalized RNA/DNA level without ligand (log10) (hypoxanthine [2])
GCUGUCACCGGUGUAUUACCCUAGUGGUCGACCGGUCUGAUGAGUCUCGACGUAGACGAAACAGC [CGACGU]	1.956 ± 0.0063	1.86 ± 0.075
GCUGUCACCGGUGUAUUACCCUAGUGGUCGACCGGUCUGAUGAGUCUUCCUCCAGACGAAACAGC [UCCUCC]	1.99 ± 0.055	1.78 ± 0.039
GCUGUCACCGGUGUAUUACCCUAGUGGUCGACCGGUCUGAUGAGUCUCGGAGCAGACGAAACAGC [CGGAGC]	1.944 ± 0.019	1.67 ± 0.046
GCUGUCACCGGUGUAUUACCCUAGUGGUCGACCGGUCUGAUGAGUCUACGGCUAGACGAAACAGC [ACGGCU]	1.88 ± 0.034	1.6 ± 0.016
GCUGUCACCGGUGUAUUACCCUAGUGGUCGACCGGUCUGAUGAGUCUUUAUCUAGACGAAACAGC [UUAUCU]	1.977 ± 0.014	1.86 ± 0.026
GCUGUCACCGGUGUAUUACCCUAGUGGUCGACCGGUCUGAUGAGUCUCUGGCGAGACGAAACAGC [CUGGCG]	1.97 ± 0.029	1.827 ± 0.0095
GCUGUCACCGGUGUAUUACCCUAGUGGUCGACCGGUCUGAUGAGUCUAAUACUAGACGAAACAGC [AAUACU]	1.8942 ± 0.0003	1.833 ± 0.0049
GCUGUCACCGGUGUAUUACCCUAGUGGUCGACCGGUCUGAUGAGUCUUCUCGGAGACGAAACAGC [UCUCGG]	1.92 ± 0.032	1.7302 ± 0.00058
GCUGUCACCGGUGUAUUACCCUAGUGGUCGACCGGUCUGAUGAGUCUGAUUCCAGACGAAACAGC [GAUUCC]	1.976 ± 0.0082	1.92 ± 0.034
GCUGUCACCGGUGUAUUACCCUAGUGGUCGACCGGUCUGAUGAGUCUUGCCGCAGACGAAACAGC [UGCCGC]	2.01 ± 0.032	1.927 ± 0.014
GCUGUCACCGGUGUAUUACCCUAGUGGUCGACCGGUCUGAUGAGUCUAGUACUAGACGAAACAGC [AGUACU]	1.897 ± 0.0094	1.89 ± 0.043
GCUGUCACCGGUGUAUUACCCUAGUGGUCGACCGGUCUGAUGAGUCUAGAUUAAGACGAAACAGC [AGAUUA]	1.91 ± 0.024	1.8 ± 0.031
GCUGUCACCGGUGUAUUACCCUAGUGGUCGACCGGUCUGAUGAGUCUCUAACUAGACGAAACAGC [CUAACU]	1.92 ± 0.033	1.869 ± 0.0023
GCUGUCACCGGUGUAUUACCCUAGUGGUCGACCGGUCUGAUGAGUCUGGCCACAGACGAAACAGC [GGCCAC]	1.997 ± 0.011	1.861 ± 0.0085
GCUGUCACCGGUGUAUUACCCUAGUGGUCGACCGGUCUGAUGAGUCUCUGCUAAGACGAAACAGC [CUGCUA]	1.95 ± 0.052	1.77 ± 0.043
GCUGUCACCGGUGUAUUACCCUAGUGGUCGACCGGUCUGAUGAGUCUCUAGGUAGACGAAACAGC [CUAGGU]	1.94 ± 0.028	1.88 ± 0.026
GCUGUCACCGGUGUAUUACCCUAGUGGUCGACCGGUCUGAUGAGUCUUCGGUCAGACGAAACAGC [UCGGUC]	2.034 ± 0.0059	1.969 ± 0.012
GCUGUCACCGGUGUAUUACCCUAGUGGUCGACCGGUCUGAUGAGUCUUUGCGAAGACGAAACAGC [UUGCGA]	1.994 ± 0.015	1.88 ± 0.027
GCUGUCACCGGUGUAUUACCCUAGUGGUCGACCGGUCUGAUGAGUCUUUUUACAGACGAAACAGC [UUUUAC]	1.93 ± 0.031	1.83 ± 0.031
GCUGUCACCGGUGUAUUACCCUAGUGGUCGACCGGUCUGAUGAGUCUGUGUCAAGACGAAACAGC [GUGUCA]	1.94 ± 0.052	1.77 ± 0.043
GCUGUCACCGGUGUAUUACCCUAGUGGUCGACCGGUCUGAUGAGUCUUCGAUGAGACGAAACAGC [UCGAUG]	1.922 ± 0.011	1.62 ± 0.033
